B1: Cyk3 (protein, UniProt Q07533 1-885, looked up)
Cytokinesis protein 3: MATNLTSLKPPFKVKARYGWSGQTKGDLGFLEGDIMEVTRIAGSWFYGKLLRNKKCSGYFPHNFVILLEERLNSSTENGRQPSKIVESFEKSNKVVIPPVPSRYSDERPRPKKKLSSSMPNSPKKPVDSLTKARKAKSKEMVNEKNIYNTQSSRHHNNSAPNLPLASHSKPQVRNFEESMNNPLPPLPPLPDLDNMRKTDKRAPKKSYSANDLHMARSSREYNYYKDNQKFYDGFIPEKRYSLEEDSISSGLFSNSQYLNDSACSSENSFALMSDFSATSAGSFARHKYAQSFSDSLQRSQNANGCSTKINDSQEFGDSNASSRNGKMGDILRKIIIPKRNTNIYSSSVSSPKSPKAYPKLPDIQNLNLSATPDEARDWIAVKCHLNRARTLTKYDKHPRYMRALEENRDLILHPQDSIYNGLNTNEVKGNTKPGLVDVELAELNIEYIDKMTWKRCIRDGTMTLDSWAQTTFSARYSTVLEKLRGIYIFCTEMFALTDDNGTSDFSAEPQNLEKILYRKHCTPYELTWLFKKLANSLGITCEIVIGFLKTPSAINWEFKYNHCWLRILVNKEWRFIDVILGNVTNPIHEFVNNRKIKKAENSYFLMAPLEMIYTHIPPREFEQHIVPSIDQLSALYLPLVFPSFFKNELKLYKFSTALSFLEDSEIYECSLEIPNDVEVFASVVIPTDNEEASSAYRNMELALTQIKKQKAESGRRIALIKAVLPPNVNKGSLYIHSGVRGTQTSIANIHPLSMMVPLTHKGSNMKYEFVIKIPSESIQKIELYIVEPQSRYLFVGNEYSFEVIQSPSDGIVYSSDEGPNQNRKQPMAIKSPSGRVHELVKSDPHFPYGTWKGSIKIKEPGVWSALVIADSGIGWSVFAEWLCV
B2: Fus1 (protein, UniProt P11710 1-512, looked up)
Nuclear fusion protein FUS1: MVATIMQTTTTVLTTVAAMSTTLASNYISSQASSSTSVTTVTTIATSIRSTPSNLLFSNVAAQPKSSSASTIGLSIGLPIGIFCFGLLILLCYFYLKRNSVSISNPPMSATIPREEEYCRRTNWFSRLFWQSKCEDQNSYSNRDIEKYNDTQWTSGDNMSSKIQYKISKPIIPQHILTPKKTVKNPYAWSGKNISLDPKVNEMEEEKVVDAFLYTKPPNIVHIESSMPSYNDLPSQKTVSSKKTALKTSEKWSYESPLSRWFLRGSTYFKDYGLSKTSLKTPTGAPQLKQMKMLSRISKGYFNESDIMPDERSPILEYNNTPLDANDSVNNLGNTTPDSQITSYRNNNIDLITARPHSVIYGTTAQQTLETNFNDHHDCNKSTEKHELIIPTPSKPLKKRKKRRQSKMYQHLQHLSRSKPLPLTPNSKYNGEASVQLGKTYTVIQDYEPRLTDEIRISLGEKVKILATHTDGWCLVEKCNTQKGSIHVSVDDKRYLNEDRGIVPGDCLQEYD
B3: Hof1 (protein, UniProt Q05080 1-669, looked up)
Cytokinesis protein 2: MSYSYEACFWDPNDNGVNILLGHISQGIRSCDSMILFFKQRSELEKDYARRLGAITGKLDKDIGTNMDYGKLNETFNVVLSVEKARAQSHSKQSEILFRQIYTDTKAFAANLQARYTTLSGKIERLRMDKFNKKKGCEVLQKKLQDAQIRFRDLQLNENNMIGAKRVEHNKRELLKWESNSQEYKVQLDVLKQEYKASQKFWIHEWAQLSCELQEMENARISFLQSKLQQFATSSMETYILEQTKMDMLTNHLNSFTAADEISTFSKENGTGRLKHKTSKGDMNSSANWAQMSSISTTSKKTESYMDNIRKLSSQLKETENKRKLASIDKYEKPLPSPEVTMATQFRNSTPVIRNETKVVANPTLSLRSSPVQLQSNVDDSVLRQKPDKPRPIVGEEQLKPDEDSKNPDEKGLMVHKRNQSLSSPSESSSSNPTDFSHIKKRQSMESMTTSVSSMANSIDDSQRFAKSWNSSNRKRKSMSHLQVPSSASSRSDDGGRTPNSAHNLNEDDYNTRRDTSTSTILFKPPVAVRGTSRGHTHRQSMIMQDSSNPIEDALYEMERIQSSSKPGTKTGNIMDERGVVRDRGITVTLPIVTSEGFPVIEYAKAMYPLIGNEAPGLANFHKGDYLLITEIVNKDWYKGEVYDNDRIDRNHRIGLIPYNFIQLLHQGL
B4: Hse1 (protein, UniProt P38753 2-452, looked up)
Class E vacuolar …: SSSAIKIRNALLKATDPKLRSDNWQYILDVCDLVKEDPEDNGQEVMSLIEKRLEQQDANVILRTLSLTVSLAENCGSRLRQEISSKNFTSLLYALIESHSVHITLKKAVTDVVKQLSDSFKDDPSLRAMGDLYDKIKRKAPYLVQPNVPEKHNMSTQADNSDDEELQKALKMSLFEYEKQKKLQEQEKESAEVLPQQQQQHQQQNQAPAHKIPAQTVVRRVRALYDLTTNEPDELSFRKGDVITVLEQVYRDWWKGALRGNMGIFPLNYVTPIVEPSKEEIEKEKNKEAIVFSQKTTIDQLHNSLNAASKTGNSNEVLQDPHIGDMYGSVTPLRPQVTRMLGKYAKEKEDMLSLRQVLANAERSYNQLMDRAANAHISPPVPGPALYAGMTHANNTPVMPPQRQSYQSNEYSPYPSNLPIQHPTNSANNTPQYGYDLGYSVVSQPPPGYEQ
B5: Lsb1 (protein, UniProt P53281 2-241, looked up)
LAS seventeen-binding protein …: SASLVNRSLKNIRNELEFLKESNVISGDIFELINSKLPEKWDGNQRSPQNADTEEYVEALYDFEAQQDGDLSLKTGDKIQVLEKISPDWYRGKSNNKIGIFPANYVKPAFTRSASPKSAEAASSSTVSRPSVPPPSYEPAASQYPSQQVSAPYAPPAGYMQAPPPQQQQAPLPYPPPFTNYYQQPQQQYAPPSQQAPVEAQPQQSSGASSAFKSFGSKLGNAAIFGAGSAIGSDIVNSIF

System: Abp1 (1xFLAG)
Test: Western blot expression level of Abp1 SH3-swapped baits (Fig. S2A-B)
Assay type: cell-based, Saccharomyces cerevisiae
Set-up: Flag (2 bands): unit not given here
Conditions: Flag signal relative to Abp1 WT (Abp1-1 to Abp1-4 = 1); sheet FigS2A-B
Procedure: Precultures of yeast cells expressing baits fused with the DHFR F[1,2]-FLAG were grown overnight at 30 °C with agitation in synthetic complete medium. The next day, cells were expanded in synthetic complete medium to reach their exponential phase (OD600 of around 1.0), pelleted, and frozen at −80 °C. The equivalent of fifty OD600 of cells was resuspended in ice-cold yeast lysis buffer (10 mM Tris-HCl pH 7.4, 150 mM NaCl, 0.5 mM EDTA (Millipore Sigma), 1% Triton X-100 (Millipore Sigma), and one cOmplete Mini Protease Inhibitor Cocktail (Millipore Sigma) per 10 mL) with […] glass beads (Millipore Sigma) and disrupted at 4 °C by 10 cycles of 2 min vortexing and 2 min cooldown. The equivalent of […] of lysed cells was used for the immunoprecipitation of the bait proteins using FLAG-M2 agarose beads (Millipore Sigma). The beads were incubated with the cell lysates for 120 min at 4 °C with a slow rotation, followed by three washes with the yeast lysis buffer.
Protein extracts and affinity-purified baits from yeast and human lysed cells were migrated on 10% polyacrylamide gels. The separated proteins were then transferred to nitrocellulose membranes. Validation of correct protein loading was done with ponceau staining of the membranes. Before the primary antibody incubations, membranes were blocked in 5% milk. Protein signals were detected on an Amersham Imager 600RGB (GE Healthcare) following the incubation of the membranes with the appropriate HRP-conjugated secondary antibodies and the Clarity Western ECL Substrate (Bio-Rad). The antibodies used in this study are M2-HRP (A8592, Sigma, 1/50,000), rabbit anti-FLAG (F7425, Sigma, 1/1000), PAK (SC-881, Santa Cruz, 1/200), p130cas/BCAR1 (SC-860, Santa Cruz, 1/200), actin (Cell Signaling Technology, 1/2000), anti-mouse HRP (Cell Signaling Technology, 1/10,000) and anti-rabbit HRP (Cell Signaling Technology, 1/10,000). The quantification of the WB signals was performed with the Amersham Imager 600 analysis software (GE Healthcare).

Question: B1 was tested. Which “Ratio Swap/WT Flag” value did it give?
Answer: The value was 0.2689.

Question: How did the “Ratio Swap/WT Flag” value turn out when B2 was run?
Answer: The value was 0.8195.

Question: Which “Ratio Swap/WT Flag” value does the source give for B3 here?
Answer: Its value is 1.051.

Question: Which “Ratio Swap/WT Flag” value does the source give for B4 here?
Answer: Its value is 0.5073.

Question: B5 was tested. Which “Ratio Swap/WT Flag” value did it give?
Answer: The value was 0.4741.

Same assay, conditions: Western blot Flag signal (2 bands), Abp1 WT, SH3-deleted or SH3-swapped; sheet FigS2A-B

Question: Which “Flag (2 bands)” value does the source give for B1 here?
Answer: The value was 59466.

Question: Which “Flag (2 bands)” value does the source give for B2 here?
Answer: Its value is 181205.

Question: For B3, which “Flag (2 bands)” value is on record?
Answer: Its value is 112286.

Question: With B4 as the molecule, how does the “Flag (2 bands)” value read?
Answer: The value was 54180.

Question: B5 was tested. Which “Flag (2 bands)” value did it give?
Answer: Its value is 50638.

System: Abp1 PPIs
Test: DHFR-PCA of Abp1 SH3-swapped baits (Fig. 2B-D, S2C, S2F)
Assay type: cell-based, Saccharomyces cerevisiae
Conditions: number of interactions of Abp1 carrying the named SH3; sheet FigS2A-B
Text: Having determined that multiple PPIs require SH3s, we asked whether the latter establish PPI specificity independently from their host proteins by swapping domains (Fig. 2A). Using the second round of genome editing, we individually replaced Abp1 SH3 with the 27 yeast SH3s and 3 human Abp1 orthologs’ SH3s (CTTN, HCLS1, and DBNL, Fig. 2B). The reintroduction of its own SH3 (Abp1SH3 in Abp1) reconstitutes almost perfectly Abp1’s interaction profile (Kendall’s τ = 0.93, Fig. 2B). […] No homologous SH3 domain fully re-establishes the normal Abp1 PPI profile (Fig. 2B and Supplementary Fig. 2C). However, we observe a significant correlation (cophenetic correlation = 0.20, p value = 0.005, Fig. 2C) between the similarity of PPI profiles (Fig. 2B) and the sequence similarity of the SH3s. […] Nonetheless, a subset of SH3-dependent PPIs is only observed with the endogenous domain. For instance, Hua2 and App1, both well-characterized partners of Abp1[14],[18],[19], are only detected when Abp1 contains its own SH3 (WT or swapped via editing). A given SH3 may therefore not be fully replaceable with other paralogous or orthologous domains. This pattern is confirmed by cellular growth phenotypic analyses (Supplementary Fig. 2D, E). PPIs, SH3 sequence similarity, and growth profiles under stress conditions are correlated (Supplementary Fig. 2D, E). This relationship is particularly clear when analyzing growth on media supplemented with hygromycin.
The stuffing of YSC84 SH3 rendered the strain sterile and was therefore not used for this study as the assays require crosses. For genes containing two SH3s (BZZ1 and BEM1), a combination of this first stuffer with a second one ([…]) coding for a highly similar linker ([…]) was used, which allowed targeting each SH3 position independently. The two N-terminal domains of SLA1, which are separated by six nucleotides, were stuffed by a single stuffer. Cells containing pCAS were selected via the G418 resistance cassette from the plasmid on YPD plates (YPD + NAT 100 μg/ml (DHFR F[1,2] selection) + G418 200 µg/mL (Bioshop Canada)). Colonies were randomly selected and grown in YPD media without G418 to allow plasmid loss. The correct insertion of the stuffer was validated by PCR and Sanger sequencing. The SH3-swapped, -shuffled, and -mutated strains were constructed following a second CRISPR–Cas9 editing step with the same procedures. The stuffer sequences were targeted by specific gRNAs (one gRNA per stuffer) and replaced by PCR amplified specific SH3 (with 40 bp homology arms) or libraries of mutated SH3 domains for Deep Mutational Scanning (DMS) with 78 bp flanking homology regions. Validation of the SH3 domain insertions was done as we previously described except for DMS libraries (see below).
The overall DHFR-PCA pipeline is based on Tarassov et al.[43] and the procedures have also been published as a visualized protocol. The screens were performed with robotically manipulated pin tools (BM5-SC1, S&P Robotics Inc.). First, the preys were cherry-picked from 96-well plates to omnitrays in a 384 format on YPD + HPH solid media. Plates were then combined into the 1536 format on YPD + HPH. The array was constituted of 575 preys previously shown to interact physically with at least one SH3-containing protein as reported in BioGRID V3.4.16 along with 40 negative controls. The prey array comprised a border of control strains of two rows and two columns corresponding to the PPI between LSM8-DHFR F[1,2] and CDC39-DHFR F[3]. This double border was used to remove border effects. Preys are present in duplicate at a randomized position in the 1536 array (except for YAL041W which is present four times per array). Baits were crossed with two prey plates, resulting in four independent bait–prey tests for each PPI. Baits were grown in liquid YPD + NAT and then transferred on solid YPD + NAT omnitrays. They were then replicated on YPD + NAT omnitrays in 1536 array format. […]

Question: For B1, which “Interactions in Abp1” value is on record?
Answer: The value was 25.

Question: B2 was tested. Which “Interactions in Abp1” value did it give?
Answer: Its value is 50.

Question: With B3 as the molecule, how does the “Interactions in Abp1” value read?
Answer: Its value is 15.

Question: B4 was tested. Which “Interactions in Abp1” value did it give?
Answer: The value was 77.

Question: B5 was tested. Which “Interactions in Abp1” value did it give?
Answer: Its value is 106.
